Experimental data from publication PMC2171568 (The Journal of Cell Biology, 2005).
Non-standard residues stand in square brackets, D forms with d. No end group written: not given here. pS = N[C@@H](COP(=O)(O)O)C(=O)O

Columns and labels:
[1] = biological target: T1, 14-3-3 Saccharomyces cerevisiae isoform BMH1, His-tagged (Saccharomyces cerevisiae, UniProt P29311 1-267); assay: pull-down
T1 sequence (looked up): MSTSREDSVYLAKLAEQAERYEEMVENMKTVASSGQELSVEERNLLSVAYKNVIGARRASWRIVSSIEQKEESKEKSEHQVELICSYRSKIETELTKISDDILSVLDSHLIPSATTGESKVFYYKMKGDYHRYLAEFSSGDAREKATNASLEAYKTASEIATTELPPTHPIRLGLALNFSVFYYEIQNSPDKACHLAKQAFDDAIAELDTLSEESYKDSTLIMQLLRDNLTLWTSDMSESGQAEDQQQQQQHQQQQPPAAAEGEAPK

[2] = biological target: T2, 14-3-3 Saccharomyces cerevisiae isoform BMH2, His-tagged (Saccharomyces cerevisiae, UniProt P34730 1-273); assay: pull-down
T2 sequence (looked up): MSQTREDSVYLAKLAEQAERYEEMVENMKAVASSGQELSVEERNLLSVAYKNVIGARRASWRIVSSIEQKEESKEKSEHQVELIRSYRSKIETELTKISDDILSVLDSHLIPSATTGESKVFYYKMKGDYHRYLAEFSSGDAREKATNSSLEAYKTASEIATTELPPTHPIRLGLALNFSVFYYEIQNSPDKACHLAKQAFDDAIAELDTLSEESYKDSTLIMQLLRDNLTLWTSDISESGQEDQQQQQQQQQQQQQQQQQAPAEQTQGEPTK

ARAA[pS]APA [peptide ARAApSAPA]: binds [1]; binds [2].
